Test results as given in the nanobody polyreactivity screen of Harvey et al. (2022).

Experiment: yeast display, Sf9 membrane polyspecificity reagent, FACS + sequencing; frameworks hold sequencing errors
Method in brief: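 A synthetic nanobody library was expressed on Saccharomyces cerevisiae BJ5465 by galactose induction for 36–48 hours. The library was stained for 1 hour at 4 °C with 10% biotinylated, detergent-solubilized Sf9 membrane reagent and enriched with streptavidin microbeads before FACS. Low and high (top ~1%) gates were set on anti-HA fluorescence for expression and streptavidin fluorescence for reagent binding, and each polyreactivity label reflects the gate of origin.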

QVQLVESGGGLVQAGGSLRLSCAASGRTFVIYAMGWYRQAPGKERELVAAISKGGGSTYYADSVKGRFTISRDNAKNTVYLQMNSLKPEDTAVYYCAAGYGTYYQYSRFDYWGQGTQVTVSS
polyreactivity (PSR sort gate): high polyreactivity

QVQLVESGGGLVQAGGSLRLSCAASGSIFARNAMGWYRQAPGTERELVASITWSGASTYYADSVKGRFTMSRDNATNTVSLQLNSLKPDDTAVYYCAATAQKLSLDYSSYEYWGQGTQVTVSS
polyreactivity (PSR sort gate): low polyreactivity

QVQLVESGGGLVQAGGSLRLSCAASGSNFVTNAMGWYRQAPGKERELVAAISVSGGSTYYADSVKGRFTFSRDNAKNTVYLQMNSLKPEDTEVYYCAADGFIGCRHIYEYWGQGTQVTVSS
polyreactivity (PSR sort gate): low polyreactivity

QVQLVESGGGLVQAGGSLRLSCAASGRTFGAYTMRWYRQAPGTERELVAAINRSGGDTYYADSVKGRFTISRDTAKNTVYLQMNSLKPEDNAVYYCNAEPRYGTYDYWGQGTQVTVSS
polyreactivity (PSR sort gate): low polyreactivity

QVQLVETGGGLVQAGGSLRLSCAASGFIFIHNAMGWYRQAPGKERELVAAISYSGGSTYYADSVKGRFTISRDNEKNTVYLQMNSLKPEDTAVYYCAARGALHHWYRYDDWGQGTQVTVSS
polyreactivity (PSR sort gate): low polyreactivity

QVQLVESGGGLVQAGGSLRLSCAASGRTFYYYAMGWYRQAPGKEREFVASITWRGGRTYYADSVKGRFTISRDNAKNTVYLQMNSLKPEDTAVYYCAADGSYAIGGYGYWGQGTQVTVSS
polyreactivity (PSR sort gate): high polyreactivity

QGQLVESGGGLVQAGGSLRLSCAAAGFTFGSYAMGWYRHAPGKERELFARISSDGSTNYADSVKGRFTISSDNAKNTVYLQMNSLKPEDTAVYYCNADRQYTCSLVFFSSDYDYWGLGTQVTVSS
polyreactivity (PSR sort gate): low polyreactivity

QVQLVESGGGLVQAGGSLRLSCAASGIIFVVYDMGWYRQAPGKERELVAAINWSGGSTYYADSVKGRFTISRDNAKNTVYLQMNSLKPEDTAVYYCAAESFSDGSPYNYWGQGTQVTVSS
polyreactivity (PSR sort gate): low polyreactivity

QVQLVESGGGLVQAGGSLRLSCAASGRTFKPYAMGWYRPAPGKDRELVAAISTRGGSTYFADSVKGRFTISRDNAKNTVYLQMNSLKPEDTAVYYCAATQPVRDYDYWGQGTQVTVSS
polyreactivity (PSR sort gate): low polyreactivity

QVQLVESGGGLVQAGGSLRLSCAASGFIFDWNAMGWYRQAPGKERELVAAITWGGDGTFYADSVKGRFTISRDNAKNTVYLQMNSLKPEDTAVYYCAADSDSSFWWYYSWGQGTQVTVSS
polyreactivity (PSR sort gate): low polyreactivity

QVQRVESGGGLVQAGGSHRLSCAASGRIFSLNAMGWYRQAPGKERELVAAITTTGGTTYYADSVKGRFTISRDKAKNTVYLQMNSLKPEDTAVYYCAADYAPYNYLAYYFSGWLEYWGQGTQVTVSS
polyreactivity (PSR sort gate): low polyreactivity

QVQLVDSVGRLVQAGGSLRLSCAASGSTFVGYAMGWYRHAPGKEREMDADIDSIGGSTYYADSVKGRFTISRDNAKNTVYLQMNILKPEDTAVYYCAARRYDTALVLYDYWGQGTQVTVSS
polyreactivity (PSR sort gate): low polyreactivity

QVQLVESGGGLVEAGGSLRLSCAAGGRIVDRYAMGWYRQAPGKEREVVAAISDRGGSTYYADSVKGRFTISRDNAKNTVYLQMNSLKPEDTAVYYCNKVYGWYSFTWGPTASDYWGQGTQVTVSS
polyreactivity (PSR sort gate): low polyreactivity

QVQLVESGGSLVQAGGSLLLSSAASLRTFGVNDIGWYRKAPGKERNFVAAISYSDTSTYYADSVKVSFTISRDNAKNTVYLQMNSLKPEDTAVYYCAVETYLQYDNGYGHDYWGQGTQVTVSS
polyreactivity (PSR sort gate): low polyreactivity

QVQLVESGGGLVLAGGSLRLSCAASGGIFYGYAMGWYREAPGKEREMVAAISSTGGRTYYADSVKGRFTISRDNAKNTVYLQMNSLKPEETAVYYCAAEDFTRQFEYWGQGTQVTVSS
polyreactivity (PSR sort gate): low polyreactivity

QVQLVESGGGLVQAGGSLRLSCDASGIIFASYAMGWYRQAPGKERELVAAISGGGSTYYADSEKGRFTISRDNAKNTVYLQMNSLKPVDTAVYYCNAEAYYRWLTNIWYSDFDYWGLGTQVTVSS
polyreactivity (PSR sort gate): low polyreactivity

QVQLVESGGGLVQAGGSQRLSCAASGRIFRYYAMGWYRQAPGKERELVAAITWSGGSTYYADSVKGRFTISRDNEKNTVYLQMNSLKPDDTAVYYCTAISYQPFHGDYWGQGTQVTVSS
polyreactivity (PSR sort gate): low polyreactivity

QVQLEESGGGLVQAGGSLSLTCAASGRTFFTYAMGWYRQAPGKERELVAAIRWTGGRTTYADSVKARFSISRDNAKNTVYLQMISLKPEDTAVYYCAARVGRTYASYSTGNYYWGQGTQVTVSS
polyreactivity (PSR sort gate): high polyreactivity

QVQLVESGGGLVQAGCSLRLSCGASGSTFIHYAMGWYRQAPGTERELVAAITWDGSSTYYADSVKGRFTISLDNAKNTVYLQMNSLKPEDTAVYDCATDYAGQYPVDGQAIHDYWGQGTQVTVSS
polyreactivity (PSR sort gate): low polyreactivity

QVQLVESGGGLVQAGGSLRLSCAASGFIFDYYAMGWYRQAPGKERELVAGISRRGGSTYYADSVKGRFTISRDNAKNTVYLQMNSLKPEDTAVYYCNADAWRKVPHPGTGGRDYWGQGTQVTVSS
polyreactivity (PSR sort gate): high polyreactivity

QVQLVESGGGLVQAGGSLRLSCAASGSTMGRYAMGWYRQAPGKERELVASITWSDDSTYYADSVKGRFTISRDNAKNTVYLQMNSLKPEDTAVYYCAAAGNLYTYRFYYWGQGTQVTVSS
polyreactivity (PSR sort gate): low polyreactivity

QVQLVESGGGLVQAGGSLRLSCAASGSIFDFYAMGWYRQAPGKERESVAAISWSGGSTYADSVKGRFTISRDNAKNTVYLQMNSLKPEDTAVYYCAARWGTYWGVLGGDPDIDYDYWGQGTQVTVSS
polyreactivity (PSR sort gate): low polyreactivity

QVQLVESGGGLVQAGGSLRLSCAASGNIFDVYAMGWYRQAPGKERELVADIDRGGTTYADSVKGRFTISRDNAKNTVYLQMNSLKPVDTAVYYCAADYVQGFGFYYQWLYDYWGQGTQVTVSS
polyreactivity (PSR sort gate): low polyreactivity

QVQLVESGGGLVQAGGSLRLSCAASGRILYYYAMGWYRQAPGKERELVAAITWGGGSTYYADSVKGRFTISRDNAKNTVYLQMNSLKPEDTAVYYCNRTFRSRLPTSRGYDYWGQGTQVTVSS
polyreactivity (PSR sort gate): low polyreactivity

QVQLVESGGGLVQAGGSLRLSCAASGFTFFRYAMGWYRQAPGKERELVATITSGGTTNYADSVKGRFTISRDNAKNTVYLQMNSLKPEDTAVYYCAARTYPSYYVTFEYWGQGTQVTVSS
polyreactivity (PSR sort gate): low polyreactivity

QVQLVESGGGLVQAGGSLRLSCAASGSLFYSNTMGWYRQAPGKERELVAAISRGGSTYYADSVKGRFTISRDNAKNTVYLQMNSLKPEDTAVYYCAARYRWAPAYDYWGQGTQVTVSS
polyreactivity (PSR sort gate): high polyreactivity

QVQLVESGGGLVQAGGSLRLSCAASGSTFGGYAMGWYRQAPGKERELVAAITYSGGSTYYADSVKGRFTISRDNAKNTVYLQMNSLKPEVTAVYYCNADDDDALPWWWPYVLDVDYWGQGTQVTVSS
polyreactivity (PSR sort gate): low polyreactivity

QVQLVESGGGLVQAGGSLRLSCAASGIIFDGNAMGWYRQAPGKERELVAAISSRGSRTYYADSVKGRFTISRDHAKNTVYLQMNSLKPEDTAVYYCNAGYGFRSYGYDPWGQGTQVTVSS
polyreactivity (PSR sort gate): high polyreactivity

QVQLVESGGGLVQAGGSLRLRCAASGFIFGRYTMGWYRQAPGKERELVAAISSRGGSTYYADSVKGRFTISRDNAKNTVYLQMNSLKPEDTAVYYCAADEIYCYDYWGQGTQVTVSS
polyreactivity (PSR sort gate): high polyreactivity

QVQLQGSGGGLVQAGGSLRLSCAASGNIFDADIMAWYRQAPGKESELVASITDGGSTNYADSVKGRFTISRDNAKNTVYLQMNSLKQEDTAVYYCADIAYPDIPTYFDYDSDCFYWSQGTQVTVSS
polyreactivity (PSR sort gate): high polyreactivity

QVQLVESGGGLVQAGGSLRLSCAASGSTLTSNAMGWYRQAPGKERELVAAIRSGGSTNYADSVKGRFTISRDNAKNTVYLQMNSLKPEDTAVYYCNKDVLWQGYGYSRVSYDYWGQGTQVTVSS
polyreactivity (PSR sort gate): low polyreactivity
